One assay deals with T1, human 4-1BB on CHO cells (human, UniProt Q07011 24-255).
T1 construct: whole, on cells; also called CHO-h4-1BB cells; human 4-1BB CHO-S cells
The experiment in a line: flow cytometry on CHO cells expressing human 4-1BB. The protocol: CHO cells overexpressing human 4-1BB (CHO-h4-1BB cells) were generated by transfection of pCHO1.0 vector (purchased from Invitrogen) encoding human 4-1BB cDNA cloned into MCS (multiple cloning site). The cell density of the expanded CHO-h4-1BB cells was adjusted to 2×10⁶ cells/ml, added at 100 μl/well to a 96-well flow plate, and centrifuged for later use. The purified 4-1BB antibody was diluted with PBS by 3-fold dilution starting from 400 nM for a total of 12 points. The above-mentioned diluted sample was added at 100 μl/well to the above-mentioned 96-well flow plate with cells, incubated at 4° C. for 30 min, and washed twice with PBS. Goat F(ab′)2 anti-human IgG-Fc (PE) (purchased from Abcam) diluted 100 times with PBS was added at 100 μl/well, incubated at 4° C. for 30 min, and washed twice with PBS. The cells resuspended with PBS was added at 100 μl/well, and detected on CytoFlex (Bechman) flow cytometer, and the corresponding MFI was calculated.

The next assay has as its target HZ-L-Yr-13&14-16-1. The experiment in a line: ELISA on coated his-tagged protein. The protocol:
Human 4-1BB-his, GITR-his, OX40-his, CD40-his proteins (purchased from ACRO) were dissolved according to the instructions, diluted to 1 μg/ml with ELISA coating solution (purchased from Shanghai Sangon), coated on ELISA plate at 100 allowed to stand overnight at 4° C., and washed for 3 times with PBST, 5% BSA (purchased from Shanghai Sangon) was added at 200 μl/well to block for 1 hour at room temperature. The coating solution was discarded, 4-1BB antibody diluted with 1% BSA was added at 100 200 nM in three replicate wells, and incubated at room temperature for 2 hours. Washing was performed with PBST for 3 times, and goat anti-human IgG-Fc-HRP (purchased from abcam) diluted with 1% BSA was added at 100 μl/well, and incubated at room temperature for 1 hour. Washing was performed 3 times with PBST, ELISA chromogenic solution (purchased from Solarbio) was added at 100 μl/well to react at room temperature for 3 minutes, ELISA stop solution (purchased from Solarbio) was added at 50 and the absorbance value at 450 nm was read.

Experimental findings from patent US20230357422A1 (published 2023) are described below.

T1 sequence (Q07011 24-255): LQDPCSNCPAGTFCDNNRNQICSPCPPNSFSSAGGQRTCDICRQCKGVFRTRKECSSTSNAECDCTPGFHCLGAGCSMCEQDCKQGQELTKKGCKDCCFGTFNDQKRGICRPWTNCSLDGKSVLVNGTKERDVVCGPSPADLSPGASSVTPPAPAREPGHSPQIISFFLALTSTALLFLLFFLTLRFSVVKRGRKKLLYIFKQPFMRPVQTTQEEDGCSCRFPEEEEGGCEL

B1: Hu-A-NA-19-1 (Fc fusion)
chain: EVQLVESGGGLVKPGGSLRLSCAASGAIFRINTGAWYRQAPGKQRELVASLTTYGKTTYADFVKGRFTISRDDSKNTLYLQMNSLKTEDTAVYYCHIGPEPRYGYWGQGTLVTVSSTHTCPPCPAPEAAGGPSVFLFPPKPKDTLMISRTPEVTCVVVDVSHEDPEVKFNWYVDGVEVHNAKTKPREEQYNSTYRVVSVLTVLHQDWLNGKEYKCKVSNKALPAPIEKTISKAKGQPREPQVYTLPPSREEMTKNQVSLTCLVKGFYPSDIAVEWESNGQPENNYKTTPPVLDSDGSFFLYSKLTVDKSRWQQGNVFSCSVMHEALHNHYTQKSLSLSPG
notes: also called HZ-A-Na-19-1
In the case of B1, the binding result in the assay with human 4-1BB on CHO cells was “binds”.

B2: Hu-A-NA-19-2 (Fc fusion)
chain: EVQLVESGGGLVKPGGSLRLSCAASGAIFRINTGAWYRQAPGKGLELVASLTTYGKTTYADFVKGRFTISRDDSKNTLYLQMNSLKTEDTAVYYCHIGPEPRYGYWGQGTLVTVSSTHTCPPCPAPEAAGGPSVFLFPPKPKDTLMISRTPEVTCVVVDVSHEDPEVKFNWYVDGVEVHNAKTKPREEQYNSTYRVVSVLTVLHQDWLNGKEYKCKVSNKALPAPIEKTISKAKGQPREPQVYTLPPSREEMTKNQVSLTCLVKGFYPSDIAVEWESNGQPENNYKTTPPVLDSDGSFFLYSKLTVDKSRWQQGNVFSCSVMHEALHNHYTQKSLSLSPG
notes: also called HZ-A-Na-19-2
For the molecule B2, the binding result in the assay with human 4-1BB on CHO cells is given as “binds”.

B3: GITR-his (receptor, human, UniProt Q9Y5U5 26-162, looked up)
chain: QRPTGGPGCGPGRLLLGTGTDARCCRVHTTRCCRDYPGEECCSEWDCMCVQPEFHCGDPCCTTCRHHPCPPGQGVQSQGKFSFGFQCIDCASGTFSGGHEGHCKPWTDCTQFGFLTVFPGNKTHNAVCVPGSPPAEP
notes: 'Human' heads the list '4-1BB-his, GITR-his, OX40-his, CD40-his' and is read as applying to all four; not shown: his tag
Consider B3, for which, in the assay with HZ-L-Yr-13&14-16-1, the binding result is on record as “no binding (tested: 200 nM)”.

B4: OX40-his (receptor, human, UniProt P43489 29-216, looked up)
chain: LHCVGDTYPSNDRCCHECRPGNGMVSRCSRSQNTVCRPCGPGFYNDVVSSKPCKPCTWCNLRSGSERKQLCTATQDTVCRCRAGTQPLDSYKPGVDCAPCPPGHFSPGDNQACKPWTNCTLAGKHTLQPASNSSDAICEDRDPPATQPQETQGPPARPITVQPTEAWPRTSQGPSTRPVEVPGGRAVA
notes: 'Human' heads the list and is read as applying to all four proteins; not shown: his tag
Consider B4, for which, in the assay with HZ-L-Yr-13&14-16-1, the binding result is “no binding (tested: 200 nM)”.
